Data taken from US10428140B2, “Anti-EphA4 antibody” (EISAI R&D MANAGEMENT CO., LTD., priority 2015, dated 2019).

Key:
Assay in all cases: Selectivity ELISA of humanized antibodies for human Eph receptor
Assay type in all cases: binding
Details in all cases: coated protein 1 nM
human EphA10 = target: T1, human EphA10 (Homo sapiens, UniProt Q5JZY3)
T1 construct: a protein of the extracellular region of each human Eph receptor fused with the SEAP protein and the His tag; made in house; host or cells: Expi293F cells (culture supernatant)
T1 sequence (Q5JZY3 34-565 limits assumed): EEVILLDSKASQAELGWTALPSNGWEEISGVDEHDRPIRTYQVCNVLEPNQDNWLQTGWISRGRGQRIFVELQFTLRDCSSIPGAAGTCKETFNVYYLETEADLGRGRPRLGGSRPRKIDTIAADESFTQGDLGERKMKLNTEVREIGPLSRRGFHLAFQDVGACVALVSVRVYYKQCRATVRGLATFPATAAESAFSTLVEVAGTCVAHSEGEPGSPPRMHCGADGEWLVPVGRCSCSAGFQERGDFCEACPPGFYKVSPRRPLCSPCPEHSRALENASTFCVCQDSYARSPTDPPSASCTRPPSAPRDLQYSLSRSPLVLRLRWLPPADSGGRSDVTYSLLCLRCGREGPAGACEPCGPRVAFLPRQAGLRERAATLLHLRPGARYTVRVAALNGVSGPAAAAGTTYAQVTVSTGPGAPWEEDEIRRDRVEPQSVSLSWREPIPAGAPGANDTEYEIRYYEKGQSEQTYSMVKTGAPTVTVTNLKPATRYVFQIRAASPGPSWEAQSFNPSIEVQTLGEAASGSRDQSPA
Outline: (§1)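 Human Eph ECD-SEAP-His fusions, harvested after 5 days of Expi293F expression, are captured on anti-His-coated wells (1 nM final). Bound humanized antibody is detected with HRP anti-IgG and TMB at 450 nm.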

human EphB2 = target: T2, human EphB2 (Homo sapiens, UniProt P29323)
T2 construct: a protein of the extracellular region of each human Eph receptor fused with the SEAP protein and the His tag; made in house; host or cells: Expi293F cells
T2 sequence (P29323 19-543 limits assumed): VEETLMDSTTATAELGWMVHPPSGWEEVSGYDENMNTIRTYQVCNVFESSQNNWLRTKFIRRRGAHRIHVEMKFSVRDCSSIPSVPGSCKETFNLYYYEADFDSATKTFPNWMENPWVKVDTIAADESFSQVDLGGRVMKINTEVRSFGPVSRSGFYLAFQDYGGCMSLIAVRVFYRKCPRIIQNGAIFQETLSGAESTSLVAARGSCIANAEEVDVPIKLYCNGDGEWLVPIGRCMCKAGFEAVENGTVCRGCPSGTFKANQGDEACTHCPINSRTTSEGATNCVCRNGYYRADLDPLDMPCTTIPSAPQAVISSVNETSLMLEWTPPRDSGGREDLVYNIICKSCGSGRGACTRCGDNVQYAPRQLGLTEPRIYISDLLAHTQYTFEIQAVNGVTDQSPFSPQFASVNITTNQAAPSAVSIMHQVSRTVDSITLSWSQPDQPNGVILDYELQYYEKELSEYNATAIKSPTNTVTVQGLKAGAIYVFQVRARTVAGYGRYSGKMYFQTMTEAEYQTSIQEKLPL
Outline: as §1

human EphB3 = target: T3, human EphB3 (Homo sapiens, UniProt P54753)
T3 construct: a protein of the extracellular region of each human Eph receptor fused with the SEAP protein and the His tag; made in house; host or cells: Expi293F cells
T3 sequence (P54753 34-559 limits assumed): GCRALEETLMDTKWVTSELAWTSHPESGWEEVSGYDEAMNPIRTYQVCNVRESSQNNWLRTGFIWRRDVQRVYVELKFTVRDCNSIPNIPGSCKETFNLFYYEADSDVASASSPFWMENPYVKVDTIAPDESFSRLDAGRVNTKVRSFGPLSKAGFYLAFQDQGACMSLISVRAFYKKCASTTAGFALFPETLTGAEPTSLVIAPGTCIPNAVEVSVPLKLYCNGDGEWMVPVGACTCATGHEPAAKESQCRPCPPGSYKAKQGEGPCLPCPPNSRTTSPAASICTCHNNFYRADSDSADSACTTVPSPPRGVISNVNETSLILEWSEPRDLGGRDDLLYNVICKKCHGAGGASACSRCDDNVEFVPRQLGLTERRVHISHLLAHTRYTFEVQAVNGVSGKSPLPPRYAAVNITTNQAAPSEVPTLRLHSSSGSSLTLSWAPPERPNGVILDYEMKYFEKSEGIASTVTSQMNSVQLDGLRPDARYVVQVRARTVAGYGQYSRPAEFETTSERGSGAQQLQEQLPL
Outline: as §1

B1: 145 (antibody, V domains shown)
VH: QVQLVQSGSELKKPGASVKVSCKASGYTFTDYSMHWVRQAPGQGLKWMGWINTETGEPTYADDFKGRFVFSLDTSVSTAYLQISSLKAEDTAVYYCARIPLYYYGSRYWYFDVWGQGTTVTVSS
VL: DIQMTQSPSSLSASVGDRVTITCRASENIYRNLAWYQQKPGKAPKLLLYAATNLADGVPSRFSGSGSGTDYTLTISSLQSEDFATYYCQHFWGTPWTFGQGTKVEIK
modifications: synthetic humanized antibody heavy chain variable region sequence; synthetic humanized antibody light chain variable region sequence
Human EphA10
  hEphA10-SEAP-: absorbance at 450 nm, percentage with respect to hEphA4-SEAP-His as 100%: 6.5%
Human EphB2
  hEphB2-SEAP-: absorbance at 450 nm, percentage with respect to hEphA4-SEAP-His as 100%: 6.7%
Human EphB3
  hEphB3-SEAP-: absorbance at 450 nm, percentage with respect to hEphA4-SEAP-His as 100%: 6.7%

B2: 158 (antibody, V domains shown)
VH: QVQLVQSGSELKKPGASVKVSCKASGYTFTDYSMHWVRQAPGQGLKWMGWINTETGEPTYAQGFTGRFVFSLDTSVSTAYLQISSLKAEDTAVYYCARIPLYYYGSRYWYFDVWGQGTTVTVSS
VL: DIQMTQSPSSLSASVGDRVTITCRASENIYRNLAWYQQKPGKAPQLLLYAATNLADGVPSRFSGSGSGTDYTLTISSLQPEDFATYYCQHFWGTPWTFGQGTKVEIK
modifications: synthetic humanized antibody heavy chain variable region sequence; synthetic humanized antibody light chain variable region sequence
Human EphA10
  hEphA10-SEAP-: absorbance at 450 nm, percentage with respect to hEphA4-SEAP-His as 100%: 6.4%
Human EphB2
  hEphB2-SEAP-: absorbance at 450 nm, percentage with respect to hEphA4-SEAP-His as 100%: 6.3%
Human EphB3
  hEphB3-SEAP-: absorbance at 450 nm, percentage with respect to hEphA4-SEAP-His as 100%: 6.5%

B3: 160 (antibody, V domains shown)
VH: QIQLVQSGSELKKPGASVKVSCKASGYTFTDYSMHWVRQAPGQGLKWMGWINTETGEPTYADDFKGRFVFSLDTSVSTAYLQISSLKAEDTAVYYCARIPLYYYGSRYWYFDVWGQGTTVTVSS
VL: DIQMTQSPSSLSASVGDRVTITCRASENIYRNLAWYQQKPGKAPQLLLYAATNLADGVPSRFSGSGSGTDYTLTISSLQPEDFATYYCQHFWGTPWTFGQGTKVEIK
modifications: synthetic humanized antibody heavy chain variable region sequence; synthetic humanized antibody light chain variable region sequence
Human EphA10
  hEphA10-SEAP-: absorbance at 450 nm, percentage with respect to hEphA4-SEAP-His as 100%: 5.0%
Human EphB2
  hEphB2-SEAP-: absorbance at 450 nm, percentage with respect to hEphA4-SEAP-His as 100%: 6.2%
Human EphB3
  hEphB3-SEAP-: absorbance at 450 nm, percentage with respect to hEphA4-SEAP-His as 100%: 6.2%

B4: 144 (antibody, V domains shown)
VH: QVQLVQSGSELKKPGASVKVSCKASGYTFTDYSMHWVRQAPGQGLEWMGWINTETGEPTYADDFKGRFVFSLDTSVSTAYLQISSLKAEDTAVYYCARIPLYYYGSRYWYFDVWGQGTTVTVSS
VL: DIQMTQSPSSLSASVGDRVTITCRASENIYRNLAWYQQKPGKAPQLLLYAATNLADGVPSRFSGSGSGTDYTLTISSLQPEDFATYYCQHFWGTPWTFGQGTKVEIK
modifications: synthetic humanized antibody heavy chain variable region sequence; synthetic humanized antibody light chain variable region sequence
Human EphA10
  hEphA10-SEAP-: absorbance at 450 nm, percentage with respect to hEphA4-SEAP-His as 100%: 5.7%
Human EphB2
  hEphB2-SEAP-: absorbance at 450 nm, percentage with respect to hEphA4-SEAP-His as 100%: 5.7%
Human EphB3
  hEphB3-SEAP-: absorbance at 450 nm, percentage with respect to hEphA4-SEAP-His as 100%: 5.8%

B5: 155 (antibody, V domains shown)
VH: QIQLVQSGSELKKPGASVKVSCKASGYTFTDYSMHWVRQAPGQGLKWMGWINTETGEPTYADDFKGRFVFSLDTSVSTAYLQISSLKAEDTAVYYCARIPLYYYGSRYWYFDVWGQGTTVTVSS
VL: DIQMTQSPSSLSASVGDRVTITCRASENIYRNLAWYQQKPGKAPKLLLYAATNLADGVPSRFSGSGSGTDYTLTISSLQSEDFATYYCQHFWGTPWTFGQGTKVEIK
modifications: synthetic humanized antibody heavy chain variable region sequence; synthetic humanized antibody light chain variable region sequence
Human EphA10
  hEphA10-SEAP-: absorbance at 450 nm, percentage with respect to hEphA4-SEAP-His as 100%: 5.4%
Human EphB2
  hEphB2-SEAP-: absorbance at 450 nm, percentage with respect to hEphA4-SEAP-His as 100%: 5.5%
Human EphB3
  hEphB3-SEAP-: absorbance at 450 nm, percentage with respect to hEphA4-SEAP-His as 100%: 5.5%

B6: 133 (antibody, V domains shown)
VH: QVQLVQSGSELKKPGASVKVSCKASGYTFTDYSMHWVRQAPGQGLEWMGWINTETGEPTYAQGFTGRFVFSLDTSVSTAYLQISSLKAEDTAVYYCARIPLYYYGSRYWYFDVWGQGTTVTVSS
VL: EIVMTQSPATLSVSPGERATLSCRASENIYRNLAWYQQKPGQSPRLLIYAATNLADGIPARFSGSGSGTEYTLTISSLQSEDFAVYYCQHFWGTPWTFGQGTKVEIK
modifications: synthetic humanized antibody heavy chain variable region sequence; synthetic humanized antibody light chain variable region sequence
Human EphA10
  hEphA10-SEAP-: absorbance at 450 nm, percentage with respect to hEphA4-SEAP-His as 100%: 4.7%
Human EphB2
  hEphB2-SEAP-: absorbance at 450 nm, percentage with respect to hEphA4-SEAP-His as 100%: 4.6%
Human EphB3
  hEphB3-SEAP-: absorbance at 450 nm, percentage with respect to hEphA4-SEAP-His as 100%: 4.7%

B7: 157 (antibody, V domains shown)
VH: QVQLVQSGSELKKPGASVKVSCKASGYTFTDYSMHWVRQAPGQGLEWMGWINTETGEPTYAQGFTGRFVFSLDTSVSTAYLQISSLKAEDTAVYYCARIPLYYYGSRYWYFDVWGQGTTVTVSS
VL: DIQMTQSPSSLSASVGDRVTITCRASENIYRNLAWYQQKPGKAPQLLLYAATNLADGVPSRFSGSGSGTDYTLTISSLQPEDFATYYCQHFWGTPWTFGQGTKVEIK
modifications: synthetic humanized antibody heavy chain variable region sequence; synthetic humanized antibody light chain variable region sequence
Human EphA10
  hEphA10-SEAP-: absorbance at 450 nm, percentage with respect to hEphA4-SEAP-His as 100%: 6.1%
Human EphB2
  hEphB2-SEAP-: absorbance at 450 nm, percentage with respect to hEphA4-SEAP-His as 100%: 6.2%
Human EphB3
  hEphB3-SEAP-: absorbance at 450 nm, percentage with respect to hEphA4-SEAP-His as 100%: 6.4%

B8: 159 (antibody, V domains shown)
VH: QVQLVQSGSELKKPGASVKVSCKASGYTFTDYSMHWVRQAPGQGLKWMGWINTETGEPTYADDFKGRFVFSLDTSVSTAYLQISSLKAEDTAVYYCARIPLYYYGSRYWYFDVWGQGTTVTVSS
VL: DIQMTQSPSSLSASVGDRVTITCRASENIYRNLAWYQQKPGKAPQLLLYAATNLADGVPSRFSGSGSGTDYTLTISSLQPEDFATYYCQHFWGTPWTFGQGTKVEIK
modifications: synthetic humanized antibody heavy chain variable region sequence; synthetic humanized antibody light chain variable region sequence
Human EphA10
  hEphA10-SEAP-: absorbance at 450 nm, percentage with respect to hEphA4-SEAP-His as 100%: 5.3%
Human EphB2
  hEphB2-SEAP-: absorbance at 450 nm, percentage with respect to hEphA4-SEAP-His as 100%: 5.4%
Human EphB3
  hEphB3-SEAP-: absorbance at 450 nm, percentage with respect to hEphA4-SEAP-His as 100%: 5.5%
